Sequences and labels used below:
B1: mAb2 of Table 4A, caninized anti-NGF antibody ZTS-841, canine IgGB, WT (antibody)
heavy: EVQLVESGGDLVKPGGSLRLSCVASGFTFSSHGMHWVRQSPGKGLQWVAVINSGGSSTYYTDAVKGRFTISRDNAKNTVYLQMNSLRAEDTAMYYCAKESVGGWEQLVGPHFDYWGQGTLVIVSSASTTAPSVFPLAPSCGSTSGSTVALACLVSGYFPEPVTVSWNSGSLTSGVHTFPSVLQSSGLYSLSSMVTVPSSRWPSETFTCNVAHPASKTKVDKPVPKRENGRVPRPPDCPKCPAPEMLGGPSVFIFPPKPKDTLLIARTPEVTCVVVDLDPEDPEVQISWFVDGKQMQTAKTQPREEQFNGTYRVVSVLPIGHQDWLKGKQFTCKVNNKALPSPIERTISKARGQAHQPSVYVLPPSREELSKNTVSLTCLIKDFFPPDIDVEWQSNGQQEPESKYRTTPPQLDEDGSYFLYSKLSVDKSRWQRGDTFICAVMHEALHNHYTQESLSHSPGK
VL: QSVLTQPTSVSGSLGQRVTISCSGSTNNIGILGASWYQLFPGKAPKLLVYGNGNRPSGVPDRFSGADSGDSVTLTITGLQAEDEADYYCQSFDTTLGAHVFGGGTHLTVL
notes: also called ID No. 46
B2: mAb2 of Table 4A, caninized anti-NGF antibody ZTS-841, canine IgGB, N434F (antibody)
heavy: EVQLVESGGDLVKPGGSLRLSCVASGFTFSSHGMHWVRQSPGKGLQWVAVINSGGSSTYYTDAVKGRFTISRDNAKNTVYLQMNSLRAEDTAMYYCAKESVGGWEQLVGPHFDYWGQGTLVIVSSASTTAPSVFPLAPSCGSTSGSTVALACLVSGYFPEPVTVSWNSGSLTSGVHTFPSVLQSSGLYSLSSMVTVPSSRWPSETFTCNVAHPASKTKVDKPVPKRENGRVPRPPDCPKCPAPEMLGGPSVFIFPPKPKDTLLIARTPEVTCVVVDLDPEDPEVQISWFVDGKQMQTAKTQPREEQFNGTYRVVSVLPIGHQDWLKGKQFTCKVNNKALPSPIERTISKARGQAHQPSVYVLPPSREELSKNTVSLTCLIKDFFPPDIDVEWQSNGQQEPESKYRTTPPQLDEDGSYFLYSKLSVDKSRWQRGDTFICAVMHEALHFHYTQESLSHSPGK
VL: QSVLTQPTSVSGSLGQRVTISCSGSTNNIGILGASWYQLFPGKAPKLLVYGNGNRPSGVPDRFSGADSGDSVTLTITGLQAEDEADYYCQSFDTTLGAHVFGGGTHLTVL
notes: also called ID No. 48
B3: mAb2 of Table 4A, caninized anti-NGF antibody ZTS-841, canine IgGB, N434G (antibody)
heavy: EVQLVESGGDLVKPGGSLRLSCVASGFTFSSHGMHWVRQSPGKGLQWVAVINSGGSSTYYTDAVKGRFTISRDNAKNTVYLQMNSLRAEDTAMYYCAKESVGGWEQLVGPHFDYWGQGTLVIVSSASTTAPSVFPLAPSCGSTSGSTVALACLVSGYFPEPVTVSWNSGSLTSGVHTFPSVLQSSGLYSLSSMVTVPSSRWPSETFTCNVAHPASKTKVDKPVPKRENGRVPRPPDCPKCPAPEMLGGPSVFIFPPKPKDTLLIARTPEVTCVVVDLDPEDPEVQISWFVDGKQMQTAKTQPREEQFNGTYRVVSVLPIGHQDWLKGKQFTCKVNNKALPSPIERTISKARGQAHQPSVYVLPPSREELSKNTVSLTCLIKDFFPPDIDVEWQSNGQQEPESKYRTTPPQLDEDGSYFLYSKLSVDKSRWQRGDTFICAVMHEALHGHYTQESLSHSPGK
VL: QSVLTQPTSVSGSLGQRVTISCSGSTNNIGILGASWYQLFPGKAPKLLVYGNGNRPSGVPDRFSGADSGDSVTLTITGLQAEDEADYYCQSFDTTLGAHVFGGGTHLTVL
notes: also called ID No. 49
B4: mAb2 of Table 4A, caninized anti-NGF antibody ZTS-841, canine IgGB, N434A (antibody)
heavy: EVQLVESGGDLVKPGGSLRLSCVASGFTFSSHGMHWVRQSPGKGLQWVAVINSGGSSTYYTDAVKGRFTISRDNAKNTVYLQMNSLRAEDTAMYYCAKESVGGWEQLVGPHFDYWGQGTLVIVSSASTTAPSVFPLAPSCGSTSGSTVALACLVSGYFPEPVTVSWNSGSLTSGVHTFPSVLQSSGLYSLSSMVTVPSSRWPSETFTCNVAHPASKTKVDKPVPKRENGRVPRPPDCPKCPAPEMLGGPSVFIFPPKPKDTLLIARTPEVTCVVVDLDPEDPEVQISWFVDGKQMQTAKTQPREEQFNGTYRVVSVLPIGHQDWLKGKQFTCKVNNKALPSPIERTISKARGQAHQPSVYVLPPSREELSKNTVSLTCLIKDFFPPDIDVEWQSNGQQEPESKYRTTPPQLDEDGSYFLYSKLSVDKSRWQRGDTFICAVMHEALHAHYTQESLSHSPGK
VL: QSVLTQPTSVSGSLGQRVTISCSGSTNNIGILGASWYQLFPGKAPKLLVYGNGNRPSGVPDRFSGADSGDSVTLTITGLQAEDEADYYCQSFDTTLGAHVFGGGTHLTVL
notes: also called ID No. 47

This passage reports Kd results from patent publication US20260193342A1 (ZOETIS SERVICES, published 2026).

Chain of canine FcRn complex (FcRn-α subunit and β-microglobulin) (A0A8I3PFR8 entry or part of it, one chain of several): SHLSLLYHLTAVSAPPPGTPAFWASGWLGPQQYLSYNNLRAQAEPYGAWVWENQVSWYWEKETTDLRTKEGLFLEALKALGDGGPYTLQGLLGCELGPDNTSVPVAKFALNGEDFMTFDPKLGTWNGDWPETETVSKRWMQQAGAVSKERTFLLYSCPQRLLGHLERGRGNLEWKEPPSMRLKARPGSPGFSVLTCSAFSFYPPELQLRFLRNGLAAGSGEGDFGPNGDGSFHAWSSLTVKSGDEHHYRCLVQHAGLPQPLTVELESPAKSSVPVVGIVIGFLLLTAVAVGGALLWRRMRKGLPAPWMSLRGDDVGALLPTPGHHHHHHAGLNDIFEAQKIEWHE

This experiment addresses canine FcRn complex (FcRn-α subunit and β-microglobulin) (canine, UniProt A0A8I3PFR8 25-347, biotin on the BAP tag by BirA (Example 5 only)). Put plainly: SPR (Biacore), biotinylated FcRn on SA chip, IgG flowed, pH 6, 15 C. (In general: Surface plasmon resonance follows binding to a sensor surface in real time, without labels.)
Take B1: binding was characterised by a dissociation constant (Kd) of 91.5 nM. Under B2 stands 1.92 nM; under B3, 34.3 nM. Under B4 stands 9.81 nM.

By Kd is commonly meant the equilibrium constant for the complex coming apart. A lower Kd goes with tighter binding.
